The text below walks through data of patent US20160282364A1 (published 2016).

For one assay, the target named is 31. Briefly: fluorescence polarization; without insulin. In general terms: Fluorescence polarisation rises when a labelled molecule tumbles more slowly, as on binding a larger partner.
The next assay deals with 31 + insulin. The assay is described as follows: fluorescence polarization; Kapp, with 2.5 uM insulin.

B1: IDE (enzyme)
chain: MNNPAIKRIGNHITKSPEDKREYRGLELANGIKVLLISDPTTDKSSAALDVHIGSLSDPPNIAGLSHFLQHMLFLGTKKYPKENEYSQFLSEHAGSSNAFTSGEHTNYYFDVSHEHLEGALDRFAQFFLSPLFDESAKDREVNAVDSEHEKNVMNDAWRLFQLEKATGNPKHPFSKFGTGNKYTLETRPNQEGIDVRQELLKFHSAYYSSNLMAVVVLGRESLDDLTNLVVKLFSEVENKNVPLPEFPEHPFQEEHLKQLYKIVPIKDIRNLYVTFPIPDLQKYYKSNPGHYLGHLIGHEGPGSLLSELKSKGWVNTLVGGQKEGARGFMFFIINVDLTEEGLLHVEDIILHMFQYIQKLRAEGPQEWVFQELKDLNAVAFRFKDKERPRGYTSKIAGILHYYPLEEVLTAEYLLEEFRPDLIEMVLDKLRPENVRVAIVSKSFEGKTDRTEEWYGTQYKQEAIPDEVIKKWQNADLNGKFKLPTKNEFIPTNFEILPLEKEATPYPALIKDTAMSKLWFKQDDKFFLPKANLNFEFFSPFAYVDPLHSNMAYLYLELLKDSLNEYAYAAELAGLSYDLQNTIYGMYLSVKGYNDKQPILLKKIIEKMATFEIDEKRFEIIKEAYMRSLNNFRAEQPHQHAMYYLRLLMTEVAWTKDELKEALDDVTLPRLKAFIPQLLSRLHIEALLHGNITKQAALGIMQMVEDTLIEHAHTKPLLPSQLVRYREVQLPDRGWFVYQQRNEVHNNSGIEIYYQTDMQSTSENMFLELFAQIISEPAFNTLRTKEQLGYIVFSGPRRANGIQGLRFIIQSEKPPHYLESRVEAFLITMEKSIEDMTEEAFQKHIQALAIRRLDKPKKLSAESAKYWGEIISQQYNFDRDNTEVAYLKTLTKEDIIKFYKEMLAVDAPRRHKVSVHVLAREMDSNPVVGEFPAQNDINLSQAPALPQPEVIQNMTEFKRGLPLFPLVKPHINFMAAKL
On to B1, for which the Kd stood at 42 nM in the assay with 31 and 280 nM in the assay with 31 + insulin.

For orientation: Kd means a measure of binding affinity in units of concentration.
